Results as given in patent US20090042809A1 (published 2009).

B1: tripeptide ITP (Ile-Thr-Pro), chemically synthesised (peptide)
peptide: ITP
B2: tripeptide IPP (Ile-Pro-Pro), chemically synthesised (peptide)
peptide: IPP
B3: tripeptide MAP (Met-Ala-Pro), chemically synthesised (peptide)
peptide: MAP

Tests used:
[1] = biological target: T1, angiotensin converting enzyme (ACE), obtained from Sigma Chemicals; test: cell-based or functional assay
[2] = biological target: T1, angiotensin converting enzyme (ACE), …; test: cell-based or functional assay; remark: listed apart in the source

| IC50 value in µM, Modified Matsui assay (cleavage of Hip-His-Leu by ACE) [1] [µM] | IC50 value in µM, at-line ACE assay (cleavage of HHL by ACE) [1] [µM] | IC50 value in the Modified Matsui test [2] [µmol/L] | Binder |
| --- | --- | --- | --- |
| 10 | 50 |  | B1 |
| 2 | 7.1 |  | B2 |
| 0.4 | 3.8 | 0.5 | B3 |
